Measured values reported in PMC11559003.

Legend:
[1] = system: CRP (cAMP receptor protein) (Escherichia coli); assay: BLI; settings: EMSA: 10 nM probe, 1x Beyotime EMSA/Gel-Shift Binding Buffer, 25 C 30 min, 6% PAGE at 4 C in 0.5x TBE + 200 uM cAMP, BLI: 10 mM HEPES, 2 mM MgCl2, 0.1 mM EDTA …
[2] = target: T1, CRP (cAMP receptor protein) (Escherichia coli) (UniProt P0ACJ8); assay: EMSA; settings: EMSA: 10 nM probe, 1x Beyotime EMSA/Gel-Shift Binding Buffer, 25 C 30 min, 6% PAGE at 4 C in 0.5x TBE + 200 uM cAMP; BLI: 10 mM HEPES, 2 mM MgCl2, 0.1 mM EDTA …
T1 sequence: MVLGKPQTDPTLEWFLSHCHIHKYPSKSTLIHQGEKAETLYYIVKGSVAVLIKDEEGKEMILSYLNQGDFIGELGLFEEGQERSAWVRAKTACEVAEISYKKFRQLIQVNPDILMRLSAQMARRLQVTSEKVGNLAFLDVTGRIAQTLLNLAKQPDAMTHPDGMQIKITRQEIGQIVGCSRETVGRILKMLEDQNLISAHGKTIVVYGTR

Work on relA promoter probe yielded a Kd ([1]; cAMP + (p)ppGpp) of 110 µM and a Kd ([1]; cAMP, no (p)ppGpp) of 13 µM.
“AGCCAGTGGCGATAAGCGGAGTCTGCGAGGACGCTTCCTGAAAATCGTCTTTATTGCAGTGAATGACAGGCAAATGCGGAAGCAGCTACGCAAAACGCAACAACTTTGCGCAAAAAGTGTGAGCAAGGGCTACGTCACATGGCCGCGCCGTGTATAATAAGCTCGTATGTAGGCTTTATTTCGCTAATCACATACGAAAGATACTCATGGCTCAAGGCACGCCTTATCGCCACTGGCT (double strand) [spoT promoter probe]” was tested, and the binding [2] was “binds”.
